The binders below were run against HA–KLC2, O88448 (assay: GST pull-down, immunoblot (IB: HA) quantified). Settings: chain shown with the change; lysates of 293T cells co-expressing HA-KHC and HA-KLC2 (kinesin-1 tetramer); three independent experiments; parent: est. 1.0; read off a plot.
Chain of HA–KLC2, O88448 (O88448 whole entry): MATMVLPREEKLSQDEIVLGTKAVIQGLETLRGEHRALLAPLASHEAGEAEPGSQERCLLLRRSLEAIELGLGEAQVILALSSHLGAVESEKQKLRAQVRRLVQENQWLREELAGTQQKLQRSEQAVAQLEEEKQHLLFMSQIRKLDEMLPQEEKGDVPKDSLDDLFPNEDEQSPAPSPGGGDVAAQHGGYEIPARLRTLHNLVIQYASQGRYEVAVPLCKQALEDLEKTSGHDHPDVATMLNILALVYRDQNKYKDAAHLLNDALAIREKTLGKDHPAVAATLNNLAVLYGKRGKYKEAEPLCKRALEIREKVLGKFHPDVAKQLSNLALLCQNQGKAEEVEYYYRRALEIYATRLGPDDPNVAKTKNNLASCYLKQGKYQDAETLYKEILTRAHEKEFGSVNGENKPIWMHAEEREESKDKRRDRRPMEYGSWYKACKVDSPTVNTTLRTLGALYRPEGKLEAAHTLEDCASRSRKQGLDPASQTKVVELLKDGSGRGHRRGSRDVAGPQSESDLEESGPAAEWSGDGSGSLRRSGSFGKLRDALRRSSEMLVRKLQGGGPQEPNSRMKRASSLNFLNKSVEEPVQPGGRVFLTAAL

ratio to parent | Binder
0.47 | GST–SKIP(1-310), Q8IWE5 D220A; F221A; G222A (protein) MEPGEVKDRILENISLSVKKLQSYFAACEDEIPAIRNHDKVLQRLCEHLDHALLYGLQDLSSGYWVLVVHFTRREAIKQIEVLQHVATNLGRSRAWLYLALNENSLESYLRLFQENLGLLHKYYVKNALVCSHDHLTLFLTLVSGLEFIRFELDLDAPYLDLAPYMPDYYKPQYLLDFEDRLPSSVHGSDSLSLNSFNSVTSTNLEWDDSAIAPSSEDYAAADVFPAVPSVPSTDWEDGDLTDTVSGPRSTASDLTSSKASTRSPTQRQNPFNEEPAETVSSSDTTPVHTTSQEKEEAQALDPPDACTEL
0.63 | GST–SKIP(1-310), Q8IWE5 E217A; D218A; Y219A (protein) MEPGEVKDRILENISLSVKKLQSYFAACEDEIPAIRNHDKVLQRLCEHLDHALLYGLQDLSSGYWVLVVHFTRREAIKQIEVLQHVATNLGRSRAWLYLALNENSLESYLRLFQENLGLLHKYYVKNALVCSHDHLTLFLTLVSGLEFIRFELDLDAPYLDLAPYMPDYYKPQYLLDFEDRLPSSVHGSDSLSLNSFNSVTSTNLEWDDSAIAPSSAAADFGDVFPAVPSVPSTDWEDGDLTDTVSGPRSTASDLTSSKASTRSPTQRQNPFNEEPAETVSSSDTTPVHTTSQEKEEAQALDPPDACTEL
0.95 | GST–SKIP(1-310), Q8IWE5 W236A; E237A (protein) MEPGEVKDRILENISLSVKKLQSYFAACEDEIPAIRNHDKVLQRLCEHLDHALLYGLQDLSSGYWVLVVHFTRREAIKQIEVLQHVATNLGRSRAWLYLALNENSLESYLRLFQENLGLLHKYYVKNALVCSHDHLTLFLTLVSGLEFIRFELDLDAPYLDLAPYMPDYYKPQYLLDFEDRLPSSVHGSDSLSLNSFNSVTSTNLEWDDSAIAPSSEDYDFGDVFPAVPSVPSTDAADGDLTDTVSGPRSTASDLTSSKASTRSPTQRQNPFNEEPAETVSSSDTTPVHTTSQEKEEAQALDPPDACTEL
0.89 | GST–SKIP(1-310), Q8IWE5 D238A; G239A; D240A (protein) MEPGEVKDRILENISLSVKKLQSYFAACEDEIPAIRNHDKVLQRLCEHLDHALLYGLQDLSSGYWVLVVHFTRREAIKQIEVLQHVATNLGRSRAWLYLALNENSLESYLRLFQENLGLLHKYYVKNALVCSHDHLTLFLTLVSGLEFIRFELDLDAPYLDLAPYMPDYYKPQYLLDFEDRLPSSVHGSDSLSLNSFNSVTSTNLEWDDSAIAPSSEDYDFGDVFPAVPSVPSTDWEAAALTDTVSGPRSTASDLTSSKASTRSPTQRQNPFNEEPAETVSSSDTTPVHTTSQEKEEAQALDPPDACTEL
